Variants at the floor of the assay were thinned out.

Consider 21 sequences from the supplement of paper PMC9233669.

One data set deals with biotinyl-Ile-oxazolone. Put plainly: self-aminoacylation, catalytic enhancement (BIO) (fold over background); higher = more active; k-Seq, kA / k0A0; sequences stand for … in GGGAAUGGAUCCACAUCUACGAAUUC…UUCACUGCAGACUUGACGAAGCUG
The method in brief: (§1)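 Each biotinyl-aminoacyl-oxazolone, at 2–1250 μM, was incubated with mutagenized RNA pools (0.43 μM) carrying a 21-nt variable region. The 50 μL reactions contained HEPES/NaCl/KCl/MgCl2/CaCl2 buffer with 5% acetonitrile at pH 6.9–7.0 and ran for 90 minutes at room temperature. After streptavidin capture, RNA was measured by qPCR in triplicate and by Illumina sequencing, and catalytic enhancement was calculated as median kA over the uncatalyzed rate from a pseudo-first-order fit of per-sequence fraction reacted.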

A further data set deals with biotinyl-Phe-oxazolone. The data set can be described thus: self-aminoacylation, catalytic enhancement (BFO) (fold over background); higher = more active; k-Seq, kA / k0A0; sequences stand for … in GGGAAUGGAUCCACAUCUACGAAUUC…UUCACUGCAGACUUGACGAAGCUG
In short, it runs like this:
as §1

The next data set has as its system biotinyl-Trp-oxazolone. The data set can be described thus: self-aminoacylation, catalytic enhancement (BWO) (fold over background); higher = more active; k-Seq, kA / k0A0; sequences stand for … in GGGAAUGGAUCCACAUCUACGAAUUC…UUCACUGCAGACUUGACGAAGCUG
In short, it runs like this:
as §1

The next data set concerns biotinyl-Leu-oxazolone. The data set can be described thus: self-aminoacylation, catalytic enhancement (BLO) (fold over background); higher = more active; k-Seq, kA / k0A0; sequences stand for … in GGGAAUGGAUCCACAUCUACGAAUUC…UUCACUGCAGACUUGACGAAGCUG
In short, it runs like this: as §1

For the next data set, the system named is biotinyl-Met-oxazolone. Put plainly: self-aminoacylation, catalytic enhancement (BMO) (fold over background); higher = more active; k-Seq, kA / k0A0; sequences stand for … in GGGAAUGGAUCCACAUCUACGAAUUC…UUCACUGCAGACUUGACGAAGCUG
The method in brief: as §1

The next data set deals with biotinyl-Val-oxazolone. Put plainly: self-aminoacylation, catalytic enhancement (BVO) (fold over background); higher = more active; k-Seq, kA / k0A0; sequences stand for … in GGGAAUGGAUCCACAUCUACGAAUUC…UUCACUGCAGACUUGACGAAGCUG
The method in brief:
as §1

On to “AUUCACCUAUGUCAACGGGUG [Fam2.2 aminoacylation ribozyme variant]”, for which the self-aminoacylation with biotinyl-Ile-oxazolone was determined as 1.83; with biotinyl-Phe-oxazolone, 16.8; in the data set with biotinyl-Trp-oxazolone, 2.52; in the data set with biotinyl-Leu-oxazolone, 3.35; with biotinyl-Met-oxazolone, 2.83; in the data set with biotinyl-Val-oxazolone, 2.01.
Consider “AUUACCCUGAUCAUAGAGUGA [Fam2.1 aminoacylation ribozyme variant]”, for which the self-aminoacylation turned out to be 6.32 in the data set with biotinyl-Ile-oxazolone; 70.5 in the data set on biotinyl-Phe-oxazolone; 17.7 in the data set on biotinyl-Trp-oxazolone; 15.1 in the data set with biotinyl-Leu-oxazolone; 15.8 in the data set on biotinyl-Met-oxazolone; 6.89 in the data set with biotinyl-Val-oxazolone.
Regarding “AUCCCCCUGGUCAUCGAGUGA [Fam2.1 aminoacylation ribozyme variant]”, the self-aminoacylation in the data set on biotinyl-Ile-oxazolone worked out at 3.85; in the data set with biotinyl-Phe-oxazolone, 45.2; in the data set on biotinyl-Trp-oxazolone, 7.31; in the data set with biotinyl-Leu-oxazolone it was 6.5; with biotinyl-Met-oxazolone, 5.79; in the data set with biotinyl-Val-oxazolone it was 4.12.
Take “AUUACCCUGGCCAUCGAGCGA [Fam2.1 aminoacylation ribozyme variant]”: the self-aminoacylation in the data set on biotinyl-Ile-oxazolone stood at 2.02; in the data set on biotinyl-Phe-oxazolone it was 9.68; with biotinyl-Trp-oxazolone, 2.39; in the data set with biotinyl-Leu-oxazolone, 1.66; in the data set on biotinyl-Met-oxazolone it was 1.61; in the data set with biotinyl-Val-oxazolone, 1.93.
With “AUUACCCUGGGCAUCGAUUGA [Fam2.1 aminoacylation ribozyme variant]”, the self-aminoacylation in the data set on biotinyl-Ile-oxazolone was found to be 0.645; with biotinyl-Phe-oxazolone it was 0.38; in the data set on biotinyl-Trp-oxazolone, 0.622; with biotinyl-Leu-oxazolone, 0.749; in the data set on biotinyl-Met-oxazolone it was 0.593; in the data set with biotinyl-Val-oxazolone, 0.648.
With “CUACUUCAACCAAUAGGUCUG [Fam1A.1 aminoacylation ribozyme variant]”, the self-aminoacylation in the data set on biotinyl-Ile-oxazolone came out at 0.947; in the data set with biotinyl-Phe-oxazolone, 1.05; in the data set on biotinyl-Trp-oxazolone, 0.753; in the data set on biotinyl-Leu-oxazolone, 0.743; in the data set on biotinyl-Met-oxazolone, 0.703; with biotinyl-Val-oxazolone it was 0.777.
With “AUUCAUCUAGGUCAUCGUGUG [Fam2.2 aminoacylation ribozyme variant]”, the self-aminoacylation in the data set with biotinyl-Ile-oxazolone was determined as 1.05; with biotinyl-Phe-oxazolone, 4.8; in the data set on biotinyl-Trp-oxazolone, 0.882; with biotinyl-Leu-oxazolone, 1.23; in the data set on biotinyl-Met-oxazolone, 1.16; in the data set with biotinyl-Val-oxazolone it was 0.915.
With “AGUCACCUAGGUCAUCCGGUG [Fam2.2 aminoacylation ribozyme variant]”, the self-aminoacylation amounted to 5.6 in the data set with biotinyl-Ile-oxazolone; 56.9 in the data set with biotinyl-Phe-oxazolone; 7.84 in the data set with biotinyl-Trp-oxazolone; 6.49 with biotinyl-Leu-oxazolone; 6.2 in the data set with biotinyl-Met-oxazolone; 5.32 with biotinyl-Val-oxazolone.
With “AUUCACCUAUGUCAGCGGGUG [Fam2.2 aminoacylation ribozyme variant]”, the self-aminoacylation was 2.87 with biotinyl-Ile-oxazolone; 28.7 with biotinyl-Phe-oxazolone; 3.73 in the data set with biotinyl-Trp-oxazolone; 4.78 in the data set on biotinyl-Leu-oxazolone; 3.6 with biotinyl-Met-oxazolone; 2.33 in the data set with biotinyl-Val-oxazolone.
For the sequence “AUUCACCUAGGUCAUUGGGUU [Fam2.2 aminoacylation ribozyme variant]”, the self-aminoacylation stood at 1.23 in the data set with biotinyl-Ile-oxazolone; 5.73 in the data set with biotinyl-Phe-oxazolone; 1.52 in the data set with biotinyl-Trp-oxazolone; 1.15 in the data set on biotinyl-Leu-oxazolone; 1.34 with biotinyl-Met-oxazolone; 1.19 in the data set on biotinyl-Val-oxazolone.
“AAGUUUGCUAACAGUCGCACG [Fam3.1 aminoacylation ribozyme variant]”: the self-aminoacylation with biotinyl-Ile-oxazolone turned out to be 0.921; with biotinyl-Phe-oxazolone, 1.65; with biotinyl-Trp-oxazolone, 0.973; with biotinyl-Leu-oxazolone it was 0.745; in the data set on biotinyl-Met-oxazolone, 1.19; in the data set on biotinyl-Val-oxazolone, 1.18.
“CCACACCUCAAGGAAUCGGUC [Fam1B.1 aminoacylation ribozyme variant]”: the self-aminoacylation in the data set with biotinyl-Ile-oxazolone worked out at 1.34; in the data set on biotinyl-Phe-oxazolone it was 0.875; in the data set with biotinyl-Trp-oxazolone, 1.32; in the data set with biotinyl-Leu-oxazolone it was 1.34; in the data set on biotinyl-Met-oxazolone, 1.02; in the data set on biotinyl-Val-oxazolone, 1.26.
On to “UUACUUCAAACAAUGGGUCUG [Fam1A.1 aminoacylation ribozyme variant]”, for which the self-aminoacylation came to 1.05 with biotinyl-Ile-oxazolone; 0.83 in the data set with biotinyl-Phe-oxazolone; 1.23 with biotinyl-Trp-oxazolone; 1.06 with biotinyl-Leu-oxazolone; 1.03 in the data set with biotinyl-Met-oxazolone; 1.05 in the data set on biotinyl-Val-oxazolone.
For “ACACACUUCAAGCAUUCGGUC [Fam1B.1 aminoacylation ribozyme variant]”, the self-aminoacylation in the data set on biotinyl-Ile-oxazolone was determined as 1.81; with biotinyl-Phe-oxazolone, 1.5; in the data set on biotinyl-Trp-oxazolone it was 2.13; in the data set on biotinyl-Leu-oxazolone, 1.8; in the data set with biotinyl-Met-oxazolone it was 1.68; in the data set on biotinyl-Val-oxazolone, 1.87.
Regarding “AAUUUUGCUAAUAGUCGUAAG [Fam3.1 aminoacylation ribozyme variant]”, the self-aminoacylation with biotinyl-Ile-oxazolone worked out at 1.42; in the data set with biotinyl-Phe-oxazolone it was 10.9; with biotinyl-Trp-oxazolone, 4.02; in the data set on biotinyl-Leu-oxazolone, 1.31; in the data set on biotinyl-Met-oxazolone, 1.11; in the data set on biotinyl-Val-oxazolone, 1.44.
Regarding “CUACUUGAGACAAUCGGUCUG [Fam1A.1 aminoacylation ribozyme variant]”, the self-aminoacylation was determined as 0.884 with biotinyl-Ile-oxazolone; 0.89 in the data set on biotinyl-Phe-oxazolone; 1.1 with biotinyl-Trp-oxazolone; 0.962 with biotinyl-Leu-oxazolone; 0.94 with biotinyl-Met-oxazolone; 1.01 with biotinyl-Val-oxazolone.
For the sequence “AUACACCUAGGUCAUAGGGUG [Fam2.2 aminoacylation ribozyme variant]”, the self-aminoacylation turned out to be 1.35 in the data set on biotinyl-Ile-oxazolone; 3.76 in the data set with biotinyl-Phe-oxazolone; 2.14 in the data set on biotinyl-Trp-oxazolone; 1.36 in the data set on biotinyl-Leu-oxazolone; 1.23 in the data set on biotinyl-Met-oxazolone; 1.43 in the data set with biotinyl-Val-oxazolone.
On to “AUACACCUAGGUCAGCGGGUG [Fam2.2 aminoacylation ribozyme variant]”, for which the self-aminoacylation with biotinyl-Ile-oxazolone stood at 2.29; with biotinyl-Phe-oxazolone, 15.5; in the data set on biotinyl-Trp-oxazolone, 3.08; with biotinyl-Leu-oxazolone it was 3.49; in the data set on biotinyl-Met-oxazolone, 3.8; in the data set on biotinyl-Val-oxazolone it was 2.15.
Turning to “CCACACUUCACGUAAUCGGUC [Fam1B.1 aminoacylation ribozyme variant]”, the self-aminoacylation is 0.892 in the data set on biotinyl-Ile-oxazolone; 0.967 in the data set with biotinyl-Phe-oxazolone; 0.591 in the data set with biotinyl-Trp-oxazolone; 0.733 with biotinyl-Leu-oxazolone; 0.822 in the data set on biotinyl-Met-oxazolone; 0.914 in the data set with biotinyl-Val-oxazolone.
As for “CCACACUCCAAGUAAUCGGUC [Fam1B.1 aminoacylation ribozyme variant]”, the self-aminoacylation is 1.01 in the data set with biotinyl-Ile-oxazolone; 1.97 in the data set on biotinyl-Phe-oxazolone; 1.29 in the data set with biotinyl-Trp-oxazolone; 0.919 with biotinyl-Leu-oxazolone; 0.951 with biotinyl-Met-oxazolone; 0.95 with biotinyl-Val-oxazolone.
On to “CCACACUUCAAGCAAUCGCCC [Fam1B.1 aminoacylation ribozyme variant]”, for which the self-aminoacylation in the data set with biotinyl-Ile-oxazolone amounted to 0.996; with biotinyl-Phe-oxazolone it was 0.498; with biotinyl-Trp-oxazolone it was 1.58; in the data set on biotinyl-Leu-oxazolone it was 2; in the data set with biotinyl-Met-oxazolone, 1.33; with biotinyl-Val-oxazolone, 2.32.
